Measurements as given in US20250197485A1, “Anti-ED-A Antibodies for the Treatment of Pulmonary Hypertension” (Universitätsklinikum Jena, priority 2022, published 2025).

Legend:
MCT-induced PH [1] = test: Right heart catheterization (RVPsys) in mouse model of MCT-induced PH; format: in vivo, C57BL/6 mice
Description: PH was induced in C57BL/6 mice (bodyweight: 25-30 g). The animals were obtained from ZET facility (Zentale Experimentelle Tierhaltung) of the University Hospital Jena (UKJ, Jena, Germany). Prior to PH induction, mice were allowed to acclimatize for at least 7 days with ad libitum access to food and water as well as controlled light/dark cycles. 41 animals were investigated divided into the following five experimental groups: • 1) sham induced controls (n=7) • 2) MCT induced PH (n=12) • 3) MCT induced PH+MAC (n=6) • 4) MCT induced PH+F8 IgG (n=8) • 5) MCT induced PH+KSF IgG (n=8)
For PH induction, the Monocrotaline (MCT, Carl Roth, Germany) method was used.
The sham induced controls were injected with 30 μl NaCl not containing MCT at day 1 (single dose; intraperitoneally, i.p.). […] The other 4 experimental groups were injected with MCT to induce PH (single dose; intraperitoneally, i.p.; 60 mg/kg body weight; volume 30 μl). Animals in the MCT induced PH+MAC group received the drug (Macitentan, Actelion Pharmaceuticals Ltd.) from day 14 to day 28 (once daily; per os; 15 mg/kg body weight). Animals in the MCT induced PH+F8 IgG group received F8 IgG 3 times on day 14, 16 and 18 (intravenously, i.v.; 195 μg/injection; volume 200 μl). Similarly, animals in the MCT induced PH+KSF IgG group received KSF IgG 3 times on day 14, 16 and 18 (intravenously, i.v.; 195 μg/injection; volume 120 μl).
On day 28 after MCT injection, mice of all experimental groups were deeply anesthetized with a single dose of 100 mg/kg body weight ketamine and 10 mg/kg body weight Xylazin in approximately 60 μl each administered i.p.
Right heart catheterization using a 1.4 F micro conductance pressure-volume catheter (Model SPR-839; Millar Instruments Inc; PowerLab system, ADInstruments Ltd., Oxford, UK) was performed via the right vena jugularis interna to measure the systolic right ventricular pressure and thereby verify the success of the experimental setting. Mice were then sacrificed in deep anesthesia and analgesia to carry out cardiac blood collection after thoracotomy and to harvest the organs.
Statistical analyses were performed using IBM SPSS statistical software, version 28.0 (IBM SPSS Statistics for Windows. Armonk, NY, USA). Data are expressed as mean±standard deviation. Kruskal-Wallis and Mann-Whitney-U test were used to test for significant differences between the different groups. A p-value<0.05 as statistically significant.

MCT-induced PH [2] = test: Echocardiographic assessment in mouse model of MCT-induced PH; format: in vivo, C57BL/6 mice
Description: PH was induced in C57BL/6 mice (bodyweight: 25-30 g). The animals were obtained from ZET facility (Zentale Experimentelle Tierhaltung) of the University Hospital Jena (UKJ, Jena, Germany). Prior to PH induction, mice were allowed to acclimatize for at least 7 days with ad libitum access to food and water as well as controlled light/dark cycles. 41 animals were investigated divided into the following five experimental groups: • 1) sham induced controls (n=7) • 2) MCT induced PH (n=12) • 3) MCT induced PH+MAC (n=6) • 4) MCT induced PH+F8 IgG (n=8) • 5) MCT induced PH+KSF IgG (n=8) For PH induction, the Monocrotaline (MCT, Carl Roth, Germany) method was used. The sham induced controls were injected with 30 μl NaCl not containing MCT at day 1 (single dose; intraperitoneally, i.p.). […] The other 4 experimental groups were injected with MCT to induce PH (single dose; intraperitoneally, i.p.; 60 mg/kg body weight; volume 30 μl). Animals in the MCT induced PH+MAC group received the drug (Macitentan, Actelion Pharmaceuticals Ltd.) from day 14 to day 28 (once daily; per os; 15 mg/kg body weight). Animals in the MCT induced PH+F8 IgG group received F8 IgG 3 times on day 14, 16 and 18 (intravenously, i.v.; 195 μg/injection; volume 200 μl). Similarly, animals in the MCT induced PH+KSF IgG group received KSF IgG 3 times on day 14, 16 and 18 (intravenously, i.v.; 195 μg/injection; volume 120 μl). Echocardiographic assessment was performed on day 28 using the Vevo 770 Rodent-Ultrasound-System, Visual Sonic, Canada, 17 MHz probe RMV176. Before echocardiography, mice were anesthetized with isoflurane for a duration time of less than 10 minutes (isoflurane-CP, 2.5V %, FiO2 1.0, oxygen per inhalation-flow dosage). Body temperature and respiratory rate were continuously monitored. All surrogate parameters of right ventricular (RV) morphology and function were assessed, among others, RV basal and medial diameters (in mm), RV length (in mm), tricuspid annular plane systolic excursion (TAPSE, in mm), right atrial area (RA area, in mm^2) or main pulmonary artery diameter (MPA, in mm). Statistical analyses were performed using IBM SPSS statistical software, version 28.0 (IBM SPSS Statistics for Windows. Armonk, NY, USA). Data are expressed as mean±standard deviation. Kruskal-Wallis and Mann-Whitney-U test were used to test for significant differences between the different groups. A p-value<0.05 as statistically significant.

[3] = in contrast to treatment with KSF IgG

B1: F8 IgG: Chimaeric anti-ED-A antibody: human F8 VH/VL fused to murine IgG2a constant regions; heavy chain SEQ ID NO: 11, light chain SEQ ID NO: 12 (antibody)
heavy: EVQLLESGGGLVQPGGSLRLSCAASGFTFSLFTMSWVRQAPGKGLEWVSAISGSGGSTYYADSVKGRFTISRDNSKNTLYLQMNSLRAEDTAVYYCAKSTHLYLFDYWGQGTLVTVSSAKTTAPSVYPLAPVCGDTTGSSVTLGCLVKGYFPEPVTLTWNSGSLSSGVHTFPAVLQSDLYTLSSSVTVTSSTWPSQSITCNVAHPASSTKVDKKIEPRGPTIKPCPPCKCPAPNLLGGPSVFIFPPKIKDVLMISLSPIVTCVVVDVSEDDPDVQISWFVNNVEVHTAQTQTHREDYNSTLRVVSALPIQHQDWMSGKEFKCKVNNKDLPAPIERTISKPKGSVRAPQVYVLPPPEEEMTKKQVTLTCMVTDFMPEDIYVEWTNNGKTELNYKNTEPVLDSDGSYFMYSKLRVEKKNWVERNSYSCSVVHEGLHNHHTTKSFSRTPGK
light: EIVLTQSPGTLSLSPGERATLSCRASQSVSMPFLAWYQQKPGQAPRLLIYGASSRATGIPDRFSGSGSGTDFTLTISRLEPEDFAVYYCQQMRGRPPTFGQGTKVEIKRTDAAPTVSIFPPSSEQLTSGGASVVCFLNNFYPKDINVKWKIDGSERQNGVLNSWTDQDSKDSTYSMSSTLTLTKDEYERHNSYTCEATHKTSTSPIVKSFNRNEC
attenuation in RVPsys compared to the MCT-induced PH group without treatment (positive control) (MCT-induced PH [1]; day 28, F8 IgG 195 μg i.v. day 14, 16, 18 (p=0.010), MAC 15 mg/kg per os once daily day 14-28 (n.s.)): significant attenuation | RVPsys compared to the group treated with the negative control antibody KSF IgG (MCT-induced PH [1]; day 28, p=0.003): significantly reduced | pressure values in the right ventricle (RVPsys) (MCT-induced PH [1]; [3]): significant reduction | RV medial diameter compared to the negative controls (MCT-induced PH [2]; day 28, all groups p<0.05, F8 IgG p=0.028): significantly increased | RV basal diameter compared with the MCT-induced PH group without treatment (MCT-induced PH [2]; day 28, p=0.002): significant attenuation | RA area compared with the MCT-induced PH group with MAC treatment (MCT-induced PH [2]; day 28, p=0.003): significant reduction | TAPSE compared to the MCT-induced PH group with MAC treatment (MCT-induced PH [2]; day 28, p=0.003): significant improvement | TAPSE compared to the MCT-induced PH group without treatment (MCT-induced PH [2]; day 28, p=0.004): significant improvement | RV basal diameter compared with the MCT-induced PH group with KSF IgG treatment (MCT-induced PH [2]; day 28, p=0.005): significant attenuation | RV basal diameter compared with the MCT-induced PH group with MAC treatment (MCT-induced PH [2]; day 28, p=0.005): significant attenuation | RA area compared with the MCT-induced PH group with KSF IgG treatment (MCT-induced PH [2]; day 28, p=0.009): significant reduction | RV medial diameter compared with the MCT-induced PH group with KSF IgG treatment (MCT-induced PH [2]; day 28, p=0.010): significantly reduced | RV medial diameter compared with the MCT-induced PH group without treatment (MCT-induced PH [2]; day 28, p=0.017): significantly reduced | RA area compared with the MCT-induced PH group without treatment (MCT-induced PH [2]; day 28, p=0.021): significant reduction | TAPSE compared to the MCT-induced PH group with KSF IgG treatment (MCT-induced PH [2]; day 28, p=0.049): significant improvement | echocardiographic signs of right ventricular load and dysfunction (MCT-induced PH [2]; [3]): improvement
